Measured values from US20060009622A1 (ADMINISTRATORS OF THE TULANE EDUCATIONAL FUND, published 2006).
Numbered stars: 1 amine (or outer) side, 2 acyl side, 3 side chain; on linkers, the order of the positions; unused ones are H or OH. Bridge positions count the residues as written; N and C are the ends. Square brackets hold non-standard residues; d marks the D form. Ends that are not written are not given here. NGly(2-(methylamino)ethyl) = CN(CCN(CC(=O)[*:2])[*:1])[*:3]; N(2-Aminoethyl)Gly = O=C(CN(CCN[*:3])[*:1])[*:2]; Nle = CCCC[C@H](N)C(=O)O

Target: human type 2 somatostatin receptor (human, UniProt P30874 1-369, limits assumed)
Sequence (P30874 whole entry): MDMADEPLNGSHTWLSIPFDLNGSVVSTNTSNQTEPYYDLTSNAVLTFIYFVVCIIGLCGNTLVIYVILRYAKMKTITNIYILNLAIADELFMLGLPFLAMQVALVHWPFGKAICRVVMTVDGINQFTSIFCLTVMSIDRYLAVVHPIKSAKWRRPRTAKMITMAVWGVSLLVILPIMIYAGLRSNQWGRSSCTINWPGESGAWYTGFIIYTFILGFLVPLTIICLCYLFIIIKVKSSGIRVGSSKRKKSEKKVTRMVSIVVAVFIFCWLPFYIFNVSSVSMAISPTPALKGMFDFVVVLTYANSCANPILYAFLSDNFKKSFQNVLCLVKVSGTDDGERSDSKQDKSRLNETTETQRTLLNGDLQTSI
Assay: cell-based or functional assay

Row | Molecule | Growth Hormone Inhibition IC50, nM (inhibition of GNRH-stimulated GH release from monolayer cultures of rat pituitary cells) [nM]
1 | somatostatin-14 (from UniProt P61278 89-116) (peptide) | 0.63
2 | [NGly(2-(methylamino)ethyl)][dS][Nle][dY][dS]CF[dW]KTCT-NH2 (disulfide 6-11; not fully specified (N-terminus); printed as camptothecin-carbonyl-N-(N-methyl-2-aminoethyl)-glycine-D-Ser-Nle-D-Tyr-D-Ser-cyclo[Cys-Phe-D-Trp-Lys-Thr-Cys]-Thr-amide) | 0.27
3 | [N(2-Aminoethyl)Gly][dS][Nle][dY][dS]CF[dW]KTCT-NH2 (disulfide 6-11; not fully specified (N-terminus); printed as combretastatin-carbonyl-N-(2-aminoethyl)-glycine-D-Ser-Me-D-Tyr-D-Ser-cyclo[Cys-Phe-D-Trp-Lys-Thr-Cys]-Thr-amide) | 0.31
4 | [N(2-Aminoethyl)Gly][dS][Nle][dY][dS]CF[dW]KTCT-NH2 (disulfide 6-11; not fully specified (N-terminus); printed as camptothecin-carbonyl-N-(2-aminoethyl)-glycine-D-Ser-Nle-D-Tyr-D-Ser-cyclo[Cys-Phe-D-Trp-Lys-Thr-Cys]-Thr-amide) | 0.32
